B1: E3 ubiquitin-protein ligase LNX (Homo sapiens), Q8TBB1 (parent)
chain: MNQPESANDPEPLCAVCGQAHSLEENHFYSYPEEVDDDLICHICLQALLDPLDTPCGHTYCTLCLTNFLVEKDFCPMDRKPLVLQHCKKSSILVNKLLNKLLVTCPFREHCTQVLQRCDLEHHFQTSCKGASHYGLTKDRKRRSQDGCPDGCASLTATAPSPEVSAAATISLMTDEPGLDNPAYVSSAEDGQPAISPVDSGRSNRTRARPFERSTIRSRSFKKINRALSVLRRTKSGSAVANHADQGRENSENTTAPEVFPRLYHLIPDGEITSIKINRVDPSESLSIRLVGGSETPLVHIIIQHIYRDGVIARDGRLLPGDIILKVNGMDISNVPHNYAVRLLRQPCQVLWLTVMREQKFRSRNNGQAPDAYRPRDDSFHVILNKSSPEEQLGIKLVRKVDEPGVFIFNVLDGGVAYRHGQLEENDRVLAINGHDLRYGSPESAAHLIQASERRVHLVVSRQVRQRSPDIFQEAGWNSNGSWSPGPGERSNTPKPLHPTITCHEKVVNIQKDPGESLGMTVAGGASHREWDLPIYVISVEPGGVISRDGRIKTGDILLNVDGVELTEVSRSEAVALLKRTSSSIVLKALEVKEYEPQEDCSSPAALDSNHNMAPPSDWSPSWVMWLELPRCLYNCKDIVLRRNTAGSLGFCIVGGYEEYNGNKPFFIKSIVEGTPAYNDGRIRCGDILLAVNGRSTSGMIHACLARLLKELKGRITLTIVSWPGTFL
partner: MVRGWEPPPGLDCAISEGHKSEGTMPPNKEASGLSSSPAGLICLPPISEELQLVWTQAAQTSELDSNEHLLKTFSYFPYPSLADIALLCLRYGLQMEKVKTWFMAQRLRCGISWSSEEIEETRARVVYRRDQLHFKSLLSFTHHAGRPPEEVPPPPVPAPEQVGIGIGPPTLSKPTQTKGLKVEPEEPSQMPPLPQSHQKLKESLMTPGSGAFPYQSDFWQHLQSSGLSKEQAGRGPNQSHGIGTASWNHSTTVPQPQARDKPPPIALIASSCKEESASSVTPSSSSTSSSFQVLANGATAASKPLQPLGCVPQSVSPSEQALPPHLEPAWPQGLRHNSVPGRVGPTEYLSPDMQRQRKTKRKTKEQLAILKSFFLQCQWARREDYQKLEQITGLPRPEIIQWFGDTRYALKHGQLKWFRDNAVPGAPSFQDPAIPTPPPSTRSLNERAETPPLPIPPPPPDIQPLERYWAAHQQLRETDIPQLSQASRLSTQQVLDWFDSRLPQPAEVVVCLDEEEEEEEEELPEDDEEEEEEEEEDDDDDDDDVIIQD
B2: E3 ubiquitin-protein ligase LNX (Homo sapiens), Q8TBB1 (parent)
chain: B1 chain
partner: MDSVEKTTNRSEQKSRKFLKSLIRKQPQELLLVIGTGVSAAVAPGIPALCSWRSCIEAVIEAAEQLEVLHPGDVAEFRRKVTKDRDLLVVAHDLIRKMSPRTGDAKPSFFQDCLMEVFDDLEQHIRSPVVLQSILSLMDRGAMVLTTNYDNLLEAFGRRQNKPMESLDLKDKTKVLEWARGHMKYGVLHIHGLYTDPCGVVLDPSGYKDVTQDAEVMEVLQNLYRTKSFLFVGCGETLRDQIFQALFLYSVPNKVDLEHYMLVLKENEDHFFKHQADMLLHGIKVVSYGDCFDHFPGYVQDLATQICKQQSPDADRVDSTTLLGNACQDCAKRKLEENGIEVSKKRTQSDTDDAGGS
B3: E3 ubiquitin-protein ligase LNX (Homo sapiens), Q8TBB1 (parent)
chain: B1 chain
partner: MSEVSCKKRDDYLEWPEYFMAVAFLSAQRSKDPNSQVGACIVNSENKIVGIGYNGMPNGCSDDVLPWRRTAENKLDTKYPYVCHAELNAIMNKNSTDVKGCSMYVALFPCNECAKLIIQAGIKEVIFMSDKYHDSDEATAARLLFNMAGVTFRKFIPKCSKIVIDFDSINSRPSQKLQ
B4: E3 ubiquitin-protein ligase LNX (Homo sapiens), Q8TBB1 (parent)
chain: B1 chain
partner: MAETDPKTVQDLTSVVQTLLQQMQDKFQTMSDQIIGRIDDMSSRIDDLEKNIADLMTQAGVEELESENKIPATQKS
B5: E3 ubiquitin-protein ligase LNX (Homo sapiens), Q8TBB1 (parent)
chain: B1 chain
partner: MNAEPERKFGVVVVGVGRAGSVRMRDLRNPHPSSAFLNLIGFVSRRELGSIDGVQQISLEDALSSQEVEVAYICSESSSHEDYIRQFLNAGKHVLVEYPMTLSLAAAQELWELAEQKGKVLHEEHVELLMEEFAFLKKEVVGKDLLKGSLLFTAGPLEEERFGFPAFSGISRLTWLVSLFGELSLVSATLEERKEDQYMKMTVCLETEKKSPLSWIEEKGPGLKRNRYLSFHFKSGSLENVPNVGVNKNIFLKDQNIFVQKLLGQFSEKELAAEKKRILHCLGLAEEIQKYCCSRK

Variants of: B1
Details: with homez_human HOMEZ

| Variant | effect of a mutation on the interaction |
| --- | --- |
| E295K | disrupting interaction strength |

Variants of: B2
Details: with FAM118A

| Variant | effect of a mutation on the interaction |
| --- | --- |
| E295K | disrupting interaction strength |

Variants of: B3
Details: with dctd_human DCTD

| Variant | effect of a mutation on the interaction |
| --- | --- |
| E295K | disrupting interaction strength |

Variants of: B4
Details: with hsbp1_human HSBP1, O75506

| Variant | effect of a mutation on the interaction |
| --- | --- |
| E295K | disrupting interaction strength |

Variants of: B5
Details: with biea_human BLVRA

| Variant | effect of a mutation on the interaction |
| --- | --- |
| E295K | disrupting interaction strength |

Reference: IntAct's records for PubMed 29892012
